PMC2193777

Molecular target: strepAID (human, UniProt Q9GZX7 1-198)
Experiment: EMSA

Chain of strepAID (Q9GZX7 whole entry): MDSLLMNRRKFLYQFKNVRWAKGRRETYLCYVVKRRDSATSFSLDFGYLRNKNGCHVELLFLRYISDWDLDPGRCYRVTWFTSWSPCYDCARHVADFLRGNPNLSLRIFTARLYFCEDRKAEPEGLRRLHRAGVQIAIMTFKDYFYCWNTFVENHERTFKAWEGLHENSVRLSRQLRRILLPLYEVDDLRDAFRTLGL

Binder | binding result
ATCGGAATGTATGAGAATAGAAGAGATAATGAATAATAGAA (ssDNA) [ssDNA (TCGend)] | binds
AUCGGAAUGUAUGAGAAUAGAAGAGAUAAUGAAUAAUAGAA (ssRNA) [ssRNA] | binds
